Experimental data as given in the RNAGym collection of RNA variant scans (doi:10.1093/molbev/msab373).

B1: Azoarcus group I ribozyme (parent)
chain: GUGCCUUGCGCCGGGAAACCACGCAAGGGAUGGUGUCAAAUUCGGCGAAACCUAAGCGCCCGCCCGGGCGUAUGGCAACGCCGAGCCAAGCUUCGGCGCCUGCGCCGAUGAAGGUGUAGAGACUAGACGGCACCCACCUAAGGCAAACGCUAUGGUGAAGGCAUAGUCCAGGGAGUGGCGAAAGUCACACAAACCGG

Variants of: B1
Assay: reverse-splicing fitness (ratio to wild type); higher = more active; in vitro selection; Mg2+ level not given
How it was run: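 An in vitro group I ribozyme library with randomized positions was T7-transcribed and gel-purified. In triplicate, 10 pmol RNA in EPPS pH 7.5 was reacted with 50 pmoles of a 30-nt RNA substrate for 1 h at 37 °C across several added MgCl2 levels (1–48 mM), then stopped with EDTA. Products were reverse transcribed from a substrate-complementary primer, PCR-amplified and sequenced (HiSeq 4000). Fitness is a variant's read proportion after selection over that before, normalised to wild type.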

Variant	reverse-splicing fitness
A111C C150G C169U	0.0134
A111C C150G C169A	0.00834
A111C C150G C169G	0.00897
A111G A120C A145U U176G	0.172
A111G A120C A145U U176C	0.45
A111G A120C A145U U176A	0.482
A111C C150G C169G U176G	0.00532
A111C C150G C169G U176C	0.00414
A111C C150G C169G U176A	0.00634
A111C A145U C150G C169A U176A	0.00872
A111C A145U C150G C169A U176G	0.007
A111C A145U C150G C169A U176C	0.011
A111G A120C A145C C150U C169U U176C	0.0214
A111G A120C A145C C150U C169U U176A	0.0273
A111G A120C A145C C150U C169U U176G	0.00415
A111G A120C A145C C150A C169G U176G	0.00452
A111G A120C A145C C150A C169G U176C	0.00982
A111G A120C A145C C150A C169G U176A	0.0185
A111C A145U C150A C169U U176A	0.0176
A111C A145U C150A C169U U176C	0.0154
A111C A145U C150A C169U U176G	0.00751

Variant	reverse-splicing fitness
A111C A145U C150G C169U U176G	0.00683
A111C A145U C150G C169U U176C	0.0134
A111C A145U C150G C169U U176A	0.0095
A111G A120C A145U C150G U176C	0.0545
A111G A120C A145U C150G U176G	0.00444
A111G A120C A145U C150G U176A	0.0189
A111G A120C A145G C169U U176C	0.0832
A111G A120C A145G C169U U176G	0.00613
A111G A120C A145G C169U U176A	0.064
A111G A120C	0.806
A111G A120C A145C C150G	0.136
A111G A120C A145C C150U	0.298
A111G A120C A145C C150A	0.0611
A111C C150A C169U U176G	0.00825
A111C C150A C169U U176A	0.0226
A111C C150A C169U U176C	0.0184
A111G A120C A145U C150A C169A U176C	0.00676
A111G A120C A145U C150A C169A U176G	0.00401
A111G A120C A145U C150A C169A U176A	0.0107
A111C C169A	0.032
A111C C169G	0.0716

Variant	reverse-splicing fitness
A111C C169U	0.128
A111C C150U C169G U176A	0.014
A111C C150U C169G U176C	0.0234
A111C C150U C169G U176G	0.0072
A111G A120C A145C C150G C169U U176A	0.00771
A111G A120C A145C C150G C169U U176C	0.0127
A111G A120C A145C C150G C169U U176G	0.0038
A111G A120C A145C C169A U176A	0.0086
A111G A120C A145C C169A U176G	0.00335
A111G A120C A145C C169A U176C	0.00508
A111G A120C C150A	0.124
A111G A120C C150G	0.0783
A111C A145U C150G C169G	0.0101
A111C A145U C150G C169A	0.00994
A111C A145U C150G C169U	0.0178
A111C C169A U176G	0.00548
A111C C169A U176C	0.0285
A111C C169A U176A	0.0188
A111G A120C C150A C169U U176C	0.022
A111G A120C C150A C169U U176G	0.00616
A111G A120C C150A C169U U176A	0.0231

Variant	reverse-splicing fitness
A111G A120C A145U C150G C169A	0.00821
A111G A120C A145U C150G C169G	0.00597
A111G A120C A145U C150G C169U	0.0352
A111G A120C A145C C150U C169G U176A	0.0186
A111G A120C A145C C150U C169G U176G	0.0049
A111G A120C A145C C150U C169G U176C	0.00855
A111G A120C A145C C150U C169U	0.0786
A111G A120C A145C C150U C169G	0.00938
A111G A120C A145C C150U C169A	0.00825
A111G A120C C150A C169A U176C	0.0167
A111G A120C C150A C169A U176A	0.0158
A111G A120C C150A C169A U176G	0.00468
A111C A145U C150U C169G U176C	0.0215
A111C A145U C150U C169G U176A	0.0147
A111C A145U C150U C169G U176G	0.00734
A111G A120C A145C C150G U176G	0.00421
A111G A120C A145C C150G U176C	0.0508
A111G A120C A145C C150G U176A	0.0148
A111G A120C A145U C150A C169A	0.00758
A111G A120C A145U C150A C169U	0.033
A111G A120C A145U C150A C169G	0.00748
